In publication PMC5700921:

Molecular target: T1, β-klotho (UniProt Q99N32)
T1 sequence: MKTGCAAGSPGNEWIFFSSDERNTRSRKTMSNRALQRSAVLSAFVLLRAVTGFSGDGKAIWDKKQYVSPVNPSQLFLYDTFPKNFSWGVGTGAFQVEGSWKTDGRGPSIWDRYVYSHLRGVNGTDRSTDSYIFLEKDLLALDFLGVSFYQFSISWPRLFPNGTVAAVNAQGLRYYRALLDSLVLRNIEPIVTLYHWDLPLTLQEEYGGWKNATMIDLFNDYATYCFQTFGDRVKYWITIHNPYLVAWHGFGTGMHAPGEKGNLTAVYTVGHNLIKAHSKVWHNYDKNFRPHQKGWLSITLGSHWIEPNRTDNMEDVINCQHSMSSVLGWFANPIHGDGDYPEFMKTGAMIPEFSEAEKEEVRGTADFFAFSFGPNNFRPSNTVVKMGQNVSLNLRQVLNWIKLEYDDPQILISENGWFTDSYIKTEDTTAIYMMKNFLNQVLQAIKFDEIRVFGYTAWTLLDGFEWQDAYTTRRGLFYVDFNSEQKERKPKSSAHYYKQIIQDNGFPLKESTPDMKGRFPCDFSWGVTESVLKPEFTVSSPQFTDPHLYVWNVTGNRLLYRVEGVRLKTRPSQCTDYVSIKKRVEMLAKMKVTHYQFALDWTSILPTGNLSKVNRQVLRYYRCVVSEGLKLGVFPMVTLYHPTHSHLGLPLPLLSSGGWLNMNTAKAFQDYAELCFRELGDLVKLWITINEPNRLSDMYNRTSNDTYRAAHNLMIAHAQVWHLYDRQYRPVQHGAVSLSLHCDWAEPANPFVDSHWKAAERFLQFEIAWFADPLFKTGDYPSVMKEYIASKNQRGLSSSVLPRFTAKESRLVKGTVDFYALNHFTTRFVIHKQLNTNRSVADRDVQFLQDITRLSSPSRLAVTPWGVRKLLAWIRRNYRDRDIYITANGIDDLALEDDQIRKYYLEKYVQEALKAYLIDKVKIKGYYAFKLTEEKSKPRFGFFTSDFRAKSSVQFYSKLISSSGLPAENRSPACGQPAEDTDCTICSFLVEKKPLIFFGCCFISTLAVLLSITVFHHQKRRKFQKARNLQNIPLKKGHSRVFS

EC50 of proliferation (MTT assay, 24 h) of β-klotho-transfected NIH-3T3 cells, hFGF21 at 0.01-500 ng/mL; untransfected cells showed no proliferative effect (data not shown): 0.3 nM
Substance: purified human fibroblast growth factor 21 (hFGF21), tag-free after TEV cleavage of MBP-hFGF21 (from UniProt Q9NSA1 29-209) (ligand)
